PMC3575195 (Nature communications, 2012)
Blank lines part the entries; values can stand above or below the molecule they belong to.

Key:
[1] = target: TRPP3-mCherry (human) (UniProt Q9P0L9); assay: single-molecule photobleaching
[2] = target: the molecule itself; assay: single-molecule photobleaching
[3] = target: PKD1L3-mCherry (mouse, UniProt Q2EG98 21-2151); assay: single-molecule photobleaching
[4] = target: the molecule itself; assay: SEC-MALS

Sequence of PKD1L3-mCherry (Q2EG98 21-2151): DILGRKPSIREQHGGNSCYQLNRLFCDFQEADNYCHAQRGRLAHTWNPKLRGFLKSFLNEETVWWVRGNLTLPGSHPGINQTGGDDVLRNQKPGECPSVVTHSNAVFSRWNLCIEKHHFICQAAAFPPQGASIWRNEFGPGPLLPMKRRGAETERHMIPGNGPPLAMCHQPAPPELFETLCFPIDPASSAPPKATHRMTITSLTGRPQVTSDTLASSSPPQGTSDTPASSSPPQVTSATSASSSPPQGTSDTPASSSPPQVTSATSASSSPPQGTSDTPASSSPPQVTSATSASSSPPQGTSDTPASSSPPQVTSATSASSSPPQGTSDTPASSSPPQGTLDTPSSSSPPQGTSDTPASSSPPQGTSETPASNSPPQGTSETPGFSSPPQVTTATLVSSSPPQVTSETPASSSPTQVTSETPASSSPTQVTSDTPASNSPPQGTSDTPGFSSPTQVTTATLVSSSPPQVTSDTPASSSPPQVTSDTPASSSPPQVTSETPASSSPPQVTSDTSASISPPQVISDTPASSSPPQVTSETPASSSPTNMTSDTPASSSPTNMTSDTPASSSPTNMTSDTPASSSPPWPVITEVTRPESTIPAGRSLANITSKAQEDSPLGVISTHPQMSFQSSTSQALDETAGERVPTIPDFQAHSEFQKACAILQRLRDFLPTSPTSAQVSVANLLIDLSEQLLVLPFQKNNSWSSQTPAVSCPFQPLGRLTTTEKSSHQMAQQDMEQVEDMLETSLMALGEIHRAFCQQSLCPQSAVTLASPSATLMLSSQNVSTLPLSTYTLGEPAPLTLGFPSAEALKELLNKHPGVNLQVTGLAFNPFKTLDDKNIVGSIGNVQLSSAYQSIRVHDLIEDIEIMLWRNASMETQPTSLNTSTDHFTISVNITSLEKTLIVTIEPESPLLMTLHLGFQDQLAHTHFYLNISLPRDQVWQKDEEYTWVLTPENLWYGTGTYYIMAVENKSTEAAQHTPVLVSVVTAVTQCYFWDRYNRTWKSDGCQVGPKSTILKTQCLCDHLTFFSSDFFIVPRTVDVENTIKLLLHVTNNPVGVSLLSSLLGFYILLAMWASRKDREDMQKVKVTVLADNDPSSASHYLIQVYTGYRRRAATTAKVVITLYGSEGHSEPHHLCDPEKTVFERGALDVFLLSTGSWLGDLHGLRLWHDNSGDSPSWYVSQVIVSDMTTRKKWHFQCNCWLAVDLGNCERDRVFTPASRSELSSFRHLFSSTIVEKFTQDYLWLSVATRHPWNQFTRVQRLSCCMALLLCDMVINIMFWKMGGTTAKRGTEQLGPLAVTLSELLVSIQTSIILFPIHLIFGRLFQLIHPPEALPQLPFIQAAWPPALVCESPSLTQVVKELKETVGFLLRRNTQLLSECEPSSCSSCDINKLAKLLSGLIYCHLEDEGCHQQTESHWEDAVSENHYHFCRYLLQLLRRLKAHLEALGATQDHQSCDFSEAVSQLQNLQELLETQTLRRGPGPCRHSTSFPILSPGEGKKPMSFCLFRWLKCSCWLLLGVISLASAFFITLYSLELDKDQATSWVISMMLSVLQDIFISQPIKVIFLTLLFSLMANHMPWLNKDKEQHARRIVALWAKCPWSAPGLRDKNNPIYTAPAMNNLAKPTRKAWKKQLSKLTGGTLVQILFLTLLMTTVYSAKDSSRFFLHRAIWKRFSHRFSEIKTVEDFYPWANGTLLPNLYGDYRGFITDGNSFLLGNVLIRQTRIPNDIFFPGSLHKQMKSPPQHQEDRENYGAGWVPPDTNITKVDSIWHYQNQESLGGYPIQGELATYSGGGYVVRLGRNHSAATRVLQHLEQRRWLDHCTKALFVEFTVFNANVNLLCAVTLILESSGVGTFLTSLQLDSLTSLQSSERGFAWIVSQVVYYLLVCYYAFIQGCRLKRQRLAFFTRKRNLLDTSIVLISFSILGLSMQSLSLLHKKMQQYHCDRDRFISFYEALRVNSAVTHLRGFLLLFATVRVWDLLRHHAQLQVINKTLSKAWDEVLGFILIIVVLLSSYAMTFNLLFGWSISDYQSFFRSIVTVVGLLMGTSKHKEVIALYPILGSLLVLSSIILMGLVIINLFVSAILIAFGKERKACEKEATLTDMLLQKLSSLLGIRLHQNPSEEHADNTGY

stoichiometry N [1]: 1
Molecule: PKD1L3-EGFP, Q2EG98 21-2151

stoichiometry N [3]: 3
B1: TRPP3-EGFP (natural protein)
chain: MNAVGSPEGQELQKLGSGAWDNPAYSGPPSPHGTLRVCTISSTGPLQPQPKKPEDEPQETAYRTQVSSCCLHICQGIRGLWGTTLTENTAENRELYIKTTLRELLVYIVFLVDICLLTYGMTSSSAYYYTKVMSELFLHTPSDTGVSFQAISSMADFWDFAQGPLLDSLYWTKWYNNQSLGHGSHSFIYYENMLLGVPRLRQLKVRNDSCVVHEDFREDILSCYDVYSPDKEEQLPFGPFNGTAWTYHSQDELGGFSHWGRLTSYSGGGYYLDLPGSRQGSAEALRALQEGLWLDRGTRVVFIDFSVYNANINLFCVLRLVVEFPATGGAIPSWQIRTVKLIRYVSNWDFFIVGCEVIFCVFIFYYVVEEILELHIHRLRYLSSIWNILDLVVILLSIVAVGFHIFRTLEVNRLMGKLLQQPNTYADFEFLAFWQTQYNNMNAVNLFFAWIKIFKYISFNKTMTQLSSTLARCAKDILGFAVMFFIVFFAYAQLGYLLFGTQVENFSTFIKCIFTQFRIILGDFDYNAIDNANRILGPAYFVTYVFFVFFVLLNMFLAIINDTYSEVKEELAGQKDELQLSDLLKQGYNKTLLRLRLRKERVSDVQKVLQGGEQEIQFEDFTNTLRELGHAEHEITELTATFTKFDRDGNRILDEKEQEKMRQDLEEERVALNTEIEKLGRSIVSSPQGKSGPEAARAGGWVSGEEFYMLTRRVLQLETVLEGVVSQIDAVGSKLKMLERKGWLAPSPGVKEQAIWKHPQPAPAVTPDPWGVQGGQESEVPYKREEEALEERRLSRGEIPTLQRS
stoichiometry N [2]: 3

B2: MBP-TRPP3_CT (domain or fragment)
chain: KEELAGQKDELQLSDLLKQGYNKTLLRLRLRKERVSDVQKVLQGGEQEIQFEDFTNTLRELGHAEHEITELTATFTKFDRDGNRILDEKEQEKMRQDLEEERVALNTEIEKLGRSIVSSPQGKSGPEAARAGGWVSGEEFYMLTRRVLQLETVLEGVVSQIDAVGSKLKMLERKGWLAPSPGVKEQAIWKHPQPAPAVTPDPWGVQGGQESEVPYKREEEALEERRLSRGEIPTLQRS
stoichiometry N [4]: 3
